# From patent US11845793B2, “Anti-ROR1 antibodies” (NBE-THERAPEUTICS AG, dated 2023)
# Positions count from the first letter of the chain named.
# B1: hu2A2-D23, humanized from 2A2 (antibody, V domains shown)
# VH: QVQLVESGAEVKKPGASVKLSCKASGYTFSDYEMHWVRQAPGQRLEWMGAIDPETGGTAYNQKFKGRVTITVDKSASTAYMELSSLRSEDTAVYYCTGYYDYDSFTYWGPGTTVTVSS
# VL: DIVMTQSPSTLSASVGDRVTITCKASQNVDAAVAWYQQKPGTAPKLLIYSASNRYTGVPSRFSGSGSGTEFTLTISSLQSEDLADYFCQQYDIYPYTFGQGTKLEIK
# B2: hu2A2-D16, humanized from 2A2 (antibody, V domains shown)
# VH: EVQLVESGAEVKKPGASVKVSCKASGYTFSDYEMHWVRQAPGQGLEWVGAIDPETGGTAYNQKFKGRVTMTRDTSTSTVYMELSSLRSEDTAVYYCTGYYDYDSFTYWGQGTLVTVSS
# VL: B1 VL with V3Q, T10S, T42K, V58I, S60T, E70D, L104V
# B3: hu2A2b-Q11, humanized from 2A2 (antibody, V domains shown)
# VH: B2 VH with E6Q, V48L, R72G, T76I, V79A, S85R, R87T, E89D, T115S
# VL: B1 VL with V3Q, T10S, A13T, T42K, P59A, E70D, L73F
# B4: chimeric mAb 2A2 (antibody, V domains shown)
# VH: QVQLQQSGAELVRPGASVTLSCKASGYTFSDYEMHWVIQTPVHGLEWIGAIDPETGGTAYNQKFKGKAILTADKSSSTAYMELRSLTSEDSAVYYCTGYYDYDSFTYWGQGTLVTVSA
# VL: DIVMTQSQKIMSTTVGDRVSITCKASQNVDAAVAWYQQKPGQSPKLLIYSASNRYTGVPDRFTGSGSGTDFTLTISNMQSEDLADYFCQQYDIYPYTFGGGTKLEIK
# B5: chimeric mAb R11 (antibody, V domains shown)
# VH: QSVKESEGDLVTPAGNLTLTCTASGSDINDYPISWVRQAPGKGLEWIGFINSGGSTWYASWVKGRFTISRTSTTVDLKMTSLTTDDTATYFCARGYSTYYGDFNIWGPGTLVTISS
# VL: ELVMTQTPSSTSGAVGGTVTINCQASQSIDSNLAWFQQKPGQPPTLLIYRASNLASGVPSRFSGSRSGTEYTLTISGVQREDAATYYCLGGVGNVSYRTSFGGGTEVVVK
# B6: rbQ11, humanized from R11 (antibody, V domains shown)
# VH: EVQLVQSGGGLVQPGGSLRLSCAASGSDINDYPISWVRQAPGKGLEWVSFINSGGSTWYASWVKGRFTISRDNAKNSLYLQMNSLRDDDTATYFCARGYSTYYGDFNIWGQGTLVTVSS
# VL: DIVMTQSPSSLSASVGDRVTITCQASQSIDSNLAWFQQKPGKAPKSLIYRASNLASGVPSKFSGSGSGTDFTLTISSLQREDAATYYCLGGVGNVSYRTSFGGGTKVEIK
# B7: rbQ12, humanized from R11 (antibody, V domains shown)
# VH: B6 VH with Q6E, D87A, L114M
# VL: B6 VL with D1E, K45N, S46L, K61R, D70E, G103Q
# B8: rbD4, humanized from R11 (antibody, V domains shown)
# VH: EVQLVESGGGLVQPGRSLRLSCTASGSDINDYPISWFRQAPGKGLEWVGFINSGGSTWYASWVKGRFTISRDDSKSIAYLQMNSLKTDDTATYFCARGYSTYYGDFNIWGQGTTVTVSS
# VL: B6 VL with I2V, K45N, S46L, K61R, D70E, G103Q
# B9: huR12_11, humanized from R12 (antibody, V domains shown)
# VH: QVQLVESGGALVQPGGSLTLSCKASGFDFSAYYMSWVRQAPGKGLEWIATIYPSSGKTYYAASVQGRFTISADNAKNTVYLQMNSLTAADTATYFCARDSYADDGALFNIWGQGTLVTVSS
# VL: QLVLTQSPSVSAALGSSAKITCTLSSAHKTDTIDWYQQLAGQAPRYLMYVQSDGSYEKRSGVPDRFSGSSSGADRYLIISSVQADDEADYYCGADYIGGYVFGGGTQLTVG
# B10: huR12_16, humanized from R12 (antibody, V domains shown)
# VH: B9 VH with A10E, Q13T, T50S, S63A
# VL: B9 VL
# B11: Chimeric mAb R12 (antibody, V domains shown)
# VH: QEQLVESGGRLVTPGGSLTLSCKASGFDFSAYYMSWVRQAPGKGLEWIATIYPSSGKTYYATWVNGRFTISSDNAQNTVDLQMNSLTAADRATYFCARDSYADDGALFNIWGPGTLVTISS
# VL: B9 VL with Q1E, S17P, A40Q, Q42E, Y49Q, E57T, S60P, S80P, G111T
# B12: huR12_7, humanized from R12 (antibody, V domains shown)
# VH: B9 VH with A10E, Y80S, Q113K
# VL: QLVLTQSPSVSAALGSSAKITCTLSSAHKTDTIDWYQQLAGQAPRYLMYVQSDGSYEKRSGVPDRFSGSSSGADRYLIISSVQADDEADYYCGADYIGGYVFGGGTQLTVLG
# B13: huR12_4, humanized from R12 (antibody, V domains shown)
# VH: B9 VH with A10E, Q113K
# VL: B12 VL with S70A, I78A, S81R
# Target: T1, StrepII-tagged ROR1-extracellular domain (human, UniProt Q01973)
# T1 sequence (Q01973 other isoform, or with tags, fused parts or gaps): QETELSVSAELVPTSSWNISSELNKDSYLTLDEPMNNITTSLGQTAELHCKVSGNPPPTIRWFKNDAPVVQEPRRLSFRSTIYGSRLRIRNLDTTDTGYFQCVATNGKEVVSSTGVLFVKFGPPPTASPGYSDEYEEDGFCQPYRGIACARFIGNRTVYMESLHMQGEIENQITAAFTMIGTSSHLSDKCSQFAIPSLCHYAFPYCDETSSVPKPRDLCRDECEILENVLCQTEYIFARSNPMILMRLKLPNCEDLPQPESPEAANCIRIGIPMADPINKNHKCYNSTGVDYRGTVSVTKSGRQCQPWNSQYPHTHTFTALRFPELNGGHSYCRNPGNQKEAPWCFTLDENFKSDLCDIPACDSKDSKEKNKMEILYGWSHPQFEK
# Assay: SPR (Biacore T200), purified mAb captured by anti-human Fc, ROR1-strep as analyte, 1:1 model
Binder,Kd [nM],koff [s⁻¹],kon [M⁻¹ s⁻¹]
B1,8,0.0138,1.72e+06
B2,10.9,0.0189,1.73e+06
B3,9.9,0.0173,1.75e+06
B4,5.7,0.00968,1.69e+06
B5,3.4,0.00328,957000
B6,6.1,0.00498,821000
B7,14.2,0.0104,733000
B8,9,0.0071,785000

# Target: T1, StrepII-tagged ROR1-extracellular domain
# Assay: SPR (Biacore T200), IgG from HEK293T supernatant captured by anti-human Fc, ROR1-strep as analyte, 1:1 model
# Experimental: For initial determination of huR12 clone affinities and parental R12 using transient HEK293T supernatants, IgG expression vectors were transiently transfected into 293T cells and IgG titers in supernatants were quantified by ELISA. For SPR, supernatants were diluted to 1 µg/ml IgG with running buffer (HBS-EP+pH 7.4 (10 mM HEPES, 150 mM NaCl, 3 mM EDTA, 0.05% Tween® 20)) and captured for 200s with a flow of 30 µl/min. ROR1-strep was diluted in running buffer using 2-fold serial dilutions ranging from 20 nM to 2.5 nM. Association was measured at a flow of 30 µl/min for 120s, and dissociation was followed for 1000s. Capture levels ranged from 26.9 RU to 54.1 RU.
Binder,Kd [nM],koff [s⁻¹],kon [M⁻¹ s⁻¹]
B9,0.084,9.65e-05,1.15e+06
B10,0.092,8.79e-05,960000
B11,1.03,0.000361,349000
B12,0.11,0.000116,1.05e+06
B13,0.091,9.93e-05,1.09e+06
